The assay has as its target T1, human amylin receptor (human calcitonin receptor + human RAMP3) (human) (UniProt P30988).
T1 sequence (looked up) 1: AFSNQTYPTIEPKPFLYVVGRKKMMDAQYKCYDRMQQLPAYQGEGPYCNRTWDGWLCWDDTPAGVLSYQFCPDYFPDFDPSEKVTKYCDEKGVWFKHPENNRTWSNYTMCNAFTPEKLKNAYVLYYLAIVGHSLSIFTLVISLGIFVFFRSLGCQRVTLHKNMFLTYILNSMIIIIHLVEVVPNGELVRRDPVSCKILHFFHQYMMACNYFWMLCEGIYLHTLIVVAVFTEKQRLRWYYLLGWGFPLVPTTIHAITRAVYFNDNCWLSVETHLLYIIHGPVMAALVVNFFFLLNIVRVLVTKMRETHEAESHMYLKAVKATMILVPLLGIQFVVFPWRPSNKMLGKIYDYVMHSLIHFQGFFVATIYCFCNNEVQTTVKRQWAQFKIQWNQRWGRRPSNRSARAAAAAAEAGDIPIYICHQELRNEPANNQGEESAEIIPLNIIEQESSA
T1 sequence (looked up) 2: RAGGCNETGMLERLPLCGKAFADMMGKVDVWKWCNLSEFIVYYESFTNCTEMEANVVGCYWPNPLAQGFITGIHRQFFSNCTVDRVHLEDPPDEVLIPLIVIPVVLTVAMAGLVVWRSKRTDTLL
Kind of assay: whole-cell competition vs 125I-rat amylin (Assay Va).

Numbered stars: 1 amine (or outer) side, 2 acyl side, 3 side chain; on linkers, the order of the positions; unused ones are H or OH. * marks the point of attachment. C20 diacid = O=C(O)CCCCCCCCCCCCCCCCCCC(=O)*; γGlu = O=C(O)[C@H](CCC(=O)[*:2])N[*:1]; AEEA = NCCOCCOCC(=O)O

B1: [N-terminal(C20 diacid-gGlu), des1, 30T, 31G, 32T]mimylin (peptide)
peptide: {C20 diacid-γGlu}-ASELSTAALGRLSAELHELATLPRTETGTGTP-NH2
SMILES: CC(C)C[C@H](NC(=O)[C@H](C)NC(=O)[C@H](C)NC(=O)[C@@H](NC(=O)[C@H](CO)NC(=O)[C@H](CC(C)C)NC(=O)[C@H](CCC(=O)O)NC(=O)[C@H](CO)NC(=O)[C@H](C)NC(=O)CC[C@H](NC(=O)CCCCCCCCCCCCCCCCCCC(=O)O)C(=O)O)[C@@H](C)O)C(=O)NCC(=O)N[C@@H](CCCNC(=N)N)C(=O)N[C@@H](CC(C)C)C(=O)N[C@@H](CO)C(=O)N[C@@H](C)C(=O)N[C@@H](CCC(=O)O)C(=O)N[C@@H](CC(C)C)C(=O)N[C@@H](Cc1c[nH]cn1)C(=O)N[C@@H](CCC(=O)O)C(=O)N[C@@H](CC(C)C)C(=O)N[C@@H](C)C(=O)N[C@H](C(=O)N[C@@H](CC(C)C)C(=O)N1CCC[C@H]1C(=O)N[C@@H](CCCNC(=N)N)C(=O)N[C@H](C(=O)N[C@@H](CCC(=O)O)C(=O)N[C@H](C(=O)NCC(=O)N[C@H](C(=O)NCC(=O)N[C@H](C(=O)N1CCC[C@H]1C(N)=O)[C@@H](C)O)[C@@H](C)O)[C@@H](C)O)[C@@H](C)O)[C@@H](C)O
Turning to B1, the IC50 turned out to be 0.606 nM.

B2: [N-terminal(C20 diacid-gGlu), des1, 30S, 31G, 33L]mimylin (peptide)
peptide: {C20 diacid-γGlu}-ASELSTAALGRLSAELHELATLPRTETGSGSL-NH2
SMILES: CC(C)C[C@H](NC(=O)[C@H](CO)NC(=O)CNC(=O)[C@H](CO)NC(=O)CNC(=O)[C@@H](NC(=O)[C@H](CCC(=O)O)NC(=O)[C@@H](NC(=O)[C@H](CCCNC(=N)N)NC(=O)[C@@H]1CCCN1C(=O)[C@H](CC(C)C)NC(=O)[C@@H](NC(=O)[C@H](C)NC(=O)[C@H](CC(C)C)NC(=O)[C@H](CCC(=O)O)NC(=O)[C@H](Cc1c[nH]cn1)NC(=O)[C@H](CC(C)C)NC(=O)[C@H](CCC(=O)O)NC(=O)[C@H](C)NC(=O)[C@H](CO)NC(=O)[C@H](CC(C)C)NC(=O)[C@H](CCCNC(=N)N)NC(=O)CNC(=O)[C@H](CC(C)C)NC(=O)[C@H](C)NC(=O)[C@H](C)NC(=O)[C@@H](NC(=O)[C@H](CO)NC(=O)[C@H](CC(C)C)NC(=O)[C@H](CCC(=O)O)NC(=O)[C@H](CO)NC(=O)[C@H](C)NC(=O)CC[C@H](NC(=O)CCCCCCCCCCCCCCCCCCC(=O)O)C(=O)O)[C@@H](C)O)[C@@H](C)O)[C@@H](C)O)[C@@H](C)O)C(N)=O
With B2, the IC50 came out at 3.05 nM.

B3: [N-terminal(C20 diacid-gGlu), des1, 30S, 31G, 33S]mimylin (peptide)
peptide: {C20 diacid-γGlu}-ASELSTAALGRLSAELHELATLPRTETGSGSS-NH2
SMILES: CC(C)C[C@H](NC(=O)[C@H](C)NC(=O)[C@H](C)NC(=O)[C@@H](NC(=O)[C@H](CO)NC(=O)[C@H](CC(C)C)NC(=O)[C@H](CCC(=O)O)NC(=O)[C@H](CO)NC(=O)[C@H](C)NC(=O)CC[C@H](NC(=O)CCCCCCCCCCCCCCCCCCC(=O)O)C(=O)O)[C@@H](C)O)C(=O)NCC(=O)N[C@@H](CCCNC(=N)N)C(=O)N[C@@H](CC(C)C)C(=O)N[C@@H](CO)C(=O)N[C@@H](C)C(=O)N[C@@H](CCC(=O)O)C(=O)N[C@@H](CC(C)C)C(=O)N[C@@H](Cc1c[nH]cn1)C(=O)N[C@@H](CCC(=O)O)C(=O)N[C@@H](CC(C)C)C(=O)N[C@@H](C)C(=O)N[C@H](C(=O)N[C@@H](CC(C)C)C(=O)N1CCC[C@H]1C(=O)N[C@@H](CCCNC(=N)N)C(=O)N[C@H](C(=O)N[C@@H](CCC(=O)O)C(=O)N[C@H](C(=O)NCC(=O)N[C@@H](CO)C(=O)NCC(=O)N[C@@H](CO)C(=O)N[C@@H](CO)C(N)=O)[C@@H](C)O)[C@@H](C)O)[C@@H](C)O
B3: the IC50 was found to be 4.07 nM.

B4: [N-terminal(C20 diacid-gGlu), des1, 30S, 31G, 33A]mimylin (peptide)
peptide: {C20 diacid-γGlu}-ASELSTAALGRLSAELHELATLPRTETGSGSA-NH2
SMILES: CC(C)C[C@H](NC(=O)[C@H](C)NC(=O)[C@H](C)NC(=O)[C@@H](NC(=O)[C@H](CO)NC(=O)[C@H](CC(C)C)NC(=O)[C@H](CCC(=O)O)NC(=O)[C@H](CO)NC(=O)[C@H](C)NC(=O)CC[C@H](NC(=O)CCCCCCCCCCCCCCCCCCC(=O)O)C(=O)O)[C@@H](C)O)C(=O)NCC(=O)N[C@@H](CCCNC(=N)N)C(=O)N[C@@H](CC(C)C)C(=O)N[C@@H](CO)C(=O)N[C@@H](C)C(=O)N[C@@H](CCC(=O)O)C(=O)N[C@@H](CC(C)C)C(=O)N[C@@H](Cc1c[nH]cn1)C(=O)N[C@@H](CCC(=O)O)C(=O)N[C@@H](CC(C)C)C(=O)N[C@@H](C)C(=O)N[C@H](C(=O)N[C@@H](CC(C)C)C(=O)N1CCC[C@H]1C(=O)N[C@@H](CCCNC(=N)N)C(=O)N[C@H](C(=O)N[C@@H](CCC(=O)O)C(=O)N[C@H](C(=O)NCC(=O)N[C@@H](CO)C(=O)NCC(=O)N[C@@H](CO)C(=O)N[C@@H](C)C(N)=O)[C@@H](C)O)[C@@H](C)O)[C@@H](C)O
Take B4: the IC50 was 1.89 nM.

For {C20 diacid-γGlu-AEEA-AEEA-AEEA}-ASELSTAALGRLSAELHELATLPRTETGSGSP-NH2 [[N-terminal(C20 diacid-gGlu-3xOEG), des1, 30S, 31G]mimylin], the IC50 turned out to be 0.432 nM.

B5: [N-terminal(C20 diacid-gGlu), des1, 30S, 31G, 33F]mimylin (peptide)
peptide: {C20 diacid-γGlu}-ASELSTAALGRLSAELHELATLPRTETGSGSF-NH2
SMILES: CC(C)C[C@H](NC(=O)[C@H](C)NC(=O)[C@H](C)NC(=O)[C@@H](NC(=O)[C@H](CO)NC(=O)[C@H](CC(C)C)NC(=O)[C@H](CCC(=O)O)NC(=O)[C@H](CO)NC(=O)[C@H](C)NC(=O)CC[C@H](NC(=O)CCCCCCCCCCCCCCCCCCC(=O)O)C(=O)O)[C@@H](C)O)C(=O)NCC(=O)N[C@@H](CCCNC(=N)N)C(=O)N[C@@H](CC(C)C)C(=O)N[C@@H](CO)C(=O)N[C@@H](C)C(=O)N[C@@H](CCC(=O)O)C(=O)N[C@@H](CC(C)C)C(=O)N[C@@H](Cc1c[nH]cn1)C(=O)N[C@@H](CCC(=O)O)C(=O)N[C@@H](CC(C)C)C(=O)N[C@@H](C)C(=O)N[C@H](C(=O)N[C@@H](CC(C)C)C(=O)N1CCC[C@H]1C(=O)N[C@@H](CCCNC(=N)N)C(=O)N[C@H](C(=O)N[C@@H](CCC(=O)O)C(=O)N[C@H](C(=O)NCC(=O)N[C@@H](CO)C(=O)NCC(=O)N[C@@H](CO)C(=O)N[C@@H](Cc1ccccc1)C(N)=O)[C@@H](C)O)[C@@H](C)O)[C@@H](C)O
Turning to B5, the IC50 was found to be 1.36 nM.

B6: [N-terminal(C20 diacid-gGlu), des1, 30S, 31G, 33G]mimylin (peptide)
peptide: {C20 diacid-γGlu}-ASELSTAALGRLSAELHELATLPRTETGSGSG-NH2
SMILES: CC(C)C[C@H](NC(=O)[C@H](C)NC(=O)[C@H](C)NC(=O)[C@@H](NC(=O)[C@H](CO)NC(=O)[C@H](CC(C)C)NC(=O)[C@H](CCC(=O)O)NC(=O)[C@H](CO)NC(=O)[C@H](C)NC(=O)CC[C@H](NC(=O)CCCCCCCCCCCCCCCCCCC(=O)O)C(=O)O)[C@@H](C)O)C(=O)NCC(=O)N[C@@H](CCCNC(=N)N)C(=O)N[C@@H](CC(C)C)C(=O)N[C@@H](CO)C(=O)N[C@@H](C)C(=O)N[C@@H](CCC(=O)O)C(=O)N[C@@H](CC(C)C)C(=O)N[C@@H](Cc1c[nH]cn1)C(=O)N[C@@H](CCC(=O)O)C(=O)N[C@@H](CC(C)C)C(=O)N[C@@H](C)C(=O)N[C@H](C(=O)N[C@@H](CC(C)C)C(=O)N1CCC[C@H]1C(=O)N[C@@H](CCCNC(=N)N)C(=O)N[C@H](C(=O)N[C@@H](CCC(=O)O)C(=O)N[C@H](C(=O)NCC(=O)N[C@@H](CO)C(=O)NCC(=O)N[C@@H](CO)C(=O)NCC(N)=O)[C@@H](C)O)[C@@H](C)O)[C@@H](C)O
Regarding B6, the IC50 was found to be 4.36 nM.

B7: [N-terminal(C20 diacid-gGlu), des1, 25H, 30S, 31G]mimylin (peptide)
peptide: {C20 diacid-γGlu}-ASELSTAALGRLSAELHELATLPHTETGSGSP-NH2
SMILES: CC(C)C[C@H](NC(=O)[C@H](C)NC(=O)[C@H](C)NC(=O)[C@@H](NC(=O)[C@H](CO)NC(=O)[C@H](CC(C)C)NC(=O)[C@H](CCC(=O)O)NC(=O)[C@H](CO)NC(=O)[C@H](C)NC(=O)CC[C@H](NC(=O)CCCCCCCCCCCCCCCCCCC(=O)O)C(=O)O)[C@@H](C)O)C(=O)NCC(=O)N[C@@H](CCCNC(=N)N)C(=O)N[C@@H](CC(C)C)C(=O)N[C@@H](CO)C(=O)N[C@@H](C)C(=O)N[C@@H](CCC(=O)O)C(=O)N[C@@H](CC(C)C)C(=O)N[C@@H](Cc1c[nH]cn1)C(=O)N[C@@H](CCC(=O)O)C(=O)N[C@@H](CC(C)C)C(=O)N[C@@H](C)C(=O)N[C@H](C(=O)N[C@@H](CC(C)C)C(=O)N1CCC[C@H]1C(=O)N[C@@H](Cc1c[nH]cn1)C(=O)N[C@H](C(=O)N[C@@H](CCC(=O)O)C(=O)N[C@H](C(=O)NCC(=O)N[C@@H](CO)C(=O)NCC(=O)N[C@@H](CO)C(=O)N1CCC[C@H]1C(N)=O)[C@@H](C)O)[C@@H](C)O)[C@@H](C)O
Take B7: the IC50 came to 0.608 nM.

The record behind these values is US20160272683A1 (Novo Nordisk, published 2016).
